Here are results for 1 substance from US20250382602.

Holding throughout (conditions): nanopore translocation, FLO-MIN112; background mutations not given
In data set [1] the target is T1, Dda 1993 K358F K358F (Enterobacteria phage T4) (UniProt P32270).
T1 sequence: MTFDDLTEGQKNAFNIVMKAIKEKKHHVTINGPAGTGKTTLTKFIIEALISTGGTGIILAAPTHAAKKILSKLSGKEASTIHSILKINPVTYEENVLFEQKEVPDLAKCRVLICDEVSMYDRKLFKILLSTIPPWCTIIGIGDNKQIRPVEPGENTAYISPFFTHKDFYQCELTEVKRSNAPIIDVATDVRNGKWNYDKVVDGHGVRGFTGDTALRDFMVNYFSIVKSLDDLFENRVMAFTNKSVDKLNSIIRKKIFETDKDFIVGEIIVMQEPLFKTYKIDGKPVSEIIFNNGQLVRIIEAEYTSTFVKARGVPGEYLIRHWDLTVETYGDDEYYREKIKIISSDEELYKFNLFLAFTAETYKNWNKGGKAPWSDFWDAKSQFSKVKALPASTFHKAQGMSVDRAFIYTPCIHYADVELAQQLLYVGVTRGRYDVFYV

The target of data set [2] is T2, Dda 1993 K358M K358M (Enterobacteria phage T4) (UniProt P32270).
T2 sequence: T1 sequence with F358M

Data set [3] addresses T3, Dda 1993 Y350I Y350I (Enterobacteria phage T4) (UniProt P32270).
T3 sequence: T1 sequence with Y350I, F358K

The target in data set [4] is T4, Dda 1993 361Q 361Q (Enterobacteria phage T4) (UniProt P32270).
T4 sequence: T1 sequence with F358K, E361Q

Data set [5] has as its target T5, Dda 1993 K358A K358A (Enterobacteria phage T4) (UniProt P32270).
T5 sequence: T1 sequence with F358A

Data set [6] deals with T6, Dda 1993 354Q 354Q (Enterobacteria phage T4) (UniProt P32270).
T6 sequence: T1 sequence with L354Q, F358K

Numbering of substitutions follows the chain as printed.

Take “barcoded 3.6 kb DNA analyte ligated to sequencing Y adaptor”: the activity (bps speed delta vs control) in data set [1] was -10.9; in data set [2], -11.8; in data set [3], 2.22; in data set [4], 13.8; in data set [5], -0.99; in data set [6], 0.09.
